Test results as given in patent US20230272070A1 (published 2023).
Positions count from the first letter of the chain named. Blank lines part the entries; values can stand above or below the binder they belong to.

Target: T1, human CD19 (human, UniProt P15391 20-556)
T1 construct: whole, on cells; also called huCD19
T1 sequence (looked up): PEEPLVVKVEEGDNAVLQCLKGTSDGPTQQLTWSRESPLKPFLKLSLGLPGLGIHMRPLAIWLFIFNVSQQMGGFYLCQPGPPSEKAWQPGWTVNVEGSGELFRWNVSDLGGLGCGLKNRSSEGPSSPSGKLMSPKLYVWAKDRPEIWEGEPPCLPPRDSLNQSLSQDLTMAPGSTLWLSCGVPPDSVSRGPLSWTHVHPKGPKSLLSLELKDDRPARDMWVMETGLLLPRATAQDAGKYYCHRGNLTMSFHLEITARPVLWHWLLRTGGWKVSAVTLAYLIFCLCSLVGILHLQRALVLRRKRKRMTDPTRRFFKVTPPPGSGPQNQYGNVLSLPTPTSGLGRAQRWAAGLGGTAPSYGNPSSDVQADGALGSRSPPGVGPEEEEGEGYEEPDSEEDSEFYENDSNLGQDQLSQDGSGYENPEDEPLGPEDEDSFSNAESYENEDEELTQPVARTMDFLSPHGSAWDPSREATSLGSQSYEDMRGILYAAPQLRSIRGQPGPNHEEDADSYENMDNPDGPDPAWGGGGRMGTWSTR
Experiment: flow cytometry on human versus cynomolgus PBMC; reference: binding to cynomolgus PBMC
Procedure: The ability of various anti-CD19 antibodies of the disclosure to bind various peripheral blood mononuclear cells (PBMC). Human and cynomolgus PBMC from frozen aliquots in citrate buffer were tested. […] The PBMC were labelled with anti-CD20-PE monoclonal antibody (mAb), anti-CD14-FITC mAb, and anti-CD3-PerCP mAb cross-reactive both to human and cynomolgus species. Cell surface bound hIgG1 were detected with a mouse anti-human IgG Fc-APC mAb. FACS gating was performed with the anti-CD20 mAb for the B lymphocyte population, with the anti-CD3 for the T lymphocyte population and with anti-CD14 for the monocyte population.

fold higher binding on human than on cynomolgus PBMC: ≤ 10 fold
B1: 10D8 antibody (antibody, human IgG1, V domains shown)
VH: QVQLVQSGAEVKKPGSSVKVSCKASGGTFSSYAISWVRQAPGQGLEWMGGIIPIFGTANYAQKFQGRVTITADESTSTAYMELSSLRSEDTAVYYCARDRGYDYVWGSYRYGAFDIWGQGTLVTVSS
VL: QSALTQPASVSGSPGQSITISCTGTSSDVGGYNYVSWYQQHPGKAPKLMIYEVSNRPSGVSNRFSGSKSGNTASLTISGLQAEDEADYYCSSYDVWVPHMVFGGGTKLTVL
notes: Tested as human IgG1; also called human IgG1 10D8 anti-CD19 antibody

fold higher binding on human than on cynomolgus PBMC: ≤ 10 fold
B2: F6 antibody (antibody, human IgG1, V domains shown)
VH: EVQLVQSGAEVKKPGESLKISCKGSGYSFTSYWIGWVRQMPGKGLEWMGIIYPGDSDTRYSPSFQGQVTISADKSISTAYLQWSSLKASDTAMYYCARVWYYDFWSGADAFDIWGQGTLVTVSS
VL: EIVMTQSPATLSVSPGERATLSCRASQSVSSNLAWYQQKPGQAPRLLIYGASTRATGIPARFSGSGSGTEFTLTISSLQSEDFAVYYCQQGSLEAPQTFGQGTKVEIK
notes: Tested as human IgG1; also called human IgG1 F6 anti-CD19 antibody

fold higher binding on human than on cynomolgus PBMC: ≤ 10 fold
B3: 7F1 antibody (antibody, human IgG1, V domains shown)
VH: EVQLVQSGAEVKKPGESLKISCKGSGYSFTSYWIGWVRQMPGKGLEWMGIIYPGDSDTRYSPSFQGQVTISADKSISTAYLQWSSLKASDTAMYYCARGDYWTGFAYWGQGTLVTVSS
VL: QSVLTQPPSVSAAPGQKVTISCSGSSSNIGNNYVSWYQQLPGTAPKLLIYDNNKRPSGIPDRFSGSKSGTSATLGITGLQTGDEADYYCGTWDLGWNSVFGGGTKLTVL
notes: Tested as human IgG1; also called human IgG1 7F1 anti-CD19 antibody

fold higher binding on human than on cynomolgus PBMC: ≤ 10 fold
B4: 9G8 antibody (antibody, human IgG1, V domains shown)
VH: EVQLVQSGAEVKKPGESLKISCKGSGYSFTSYWIGWVRQMPGKGLEWMGIIYPGDSDTRYSPSFQGQVTISADKSISTAYLQWSSLKASDTAMYYCARGVSGIYNLHGFDIWGQGTLVTVSS
VL: DIQMTQSPSSLSASVGDRVTITCRASQSISSYLNWYQQKPGKAPKLLIYAASSLQSGVPSRFSGSGSGTDFTLTISSLQPEDFATYYCQQGRFGSPFTFGQGTKVEIK
notes: also called human IgG1 9G8 anti-CD19 antibody

fold higher binding on human than on cynomolgus PBMC: ≤ 10 fold
B5: 7F11 antibody (antibody, human IgG1, V domains shown)
VH: B4 VH
VL: B4 VL with R92M, F93W, G94D, S95N
notes: Tested as human IgG1; also called human IgG1 7F11 anti-CD19 antibody

fold higher binding on human than on cynomolgus PBMC: ≤ 10 fold
B6: 5F5 antibody (antibody, human IgG1, V domains shown)
VH: B4 VH with V100I
VL: B4 VL with G91A, R92S, F93L, G94D, F97L
notes: Tested as human IgG1; also called human IgG1 5F5 anti-CD19 antibody
